From patent US20260232830A1 (JIANGSU HENGRUI PHARMACEUTICALS, published 2026)

What was measured:
[1] = biological target: T1, MUC1-C-L-6×His (His-tagged human MUC1-C protein extracellular domain) (human, UniProt P15941 961-1152); test: ELISA, coated antigen, hybridoma supernatant
T1 construct: template human MUC1 UniProt P15941; expressed in 293 cells; also called hMUC1-C-L-his; MUC1-C-L-His

human EGFR-His antigen [2] = biological target: T2, human EGFR-His antigen (human, UniProt P00533 25-645); test: SPR Biacore 8K, antibody on Protein A chip, 1:1 fit
T2 construct: also called hEGFR-His

human EGFR-His antigen [3] = biological target: T2, human EGFR-His antigen; test: SPR Biacore T200, antibody on Protein A chip, 1:1 fit
[4] = biological target: T3, cynomolgus EGFR-his (Cat. #90285-C08H, Sino Biological) (cynomolgus, UniProt A0A2K5WK39 25-645); test: as above
T3 construct: bought reagent; also called Cyno EGFR-His

[5] = biological target: T4, human EGFR as expressed on tumour cell lines (HCC827, T47D, HPAC) (human, UniProt P00533 25-1210); test: FACS, HCC827
T4 construct: whole, on cells; the cell line is named under assay; also called HCC827 cells; T47D cells

[6] = biological target: T4, human EGFR as expressed on tumour cell …; test: FACS, HPAC
[7] = biological target: T5, Cynomolgus MUC1 his (Cat. #MU1-C52H5, Acro) (cynomolgus); test: SPR Biacore T200, antibody on Protein A chip, 1:1 fit
T5 construct: bought reagent; also called Cyno MUC1-His

[8] = biological target: T1, MUC1-C-L-6×His (His-tagged human MUC1-C …); test: SPR Biacore 8K, antibody on Protein A chip, 1:1 fit
human EGFR-His antigen [9] = biological target: T2, human EGFR-His antigen; test: SPR Biacore 8K, antibody on Protein A chip; Ag1 hMUC1-C-His bound first, Ag2 hEGFR-His
human EGFR-His antigen [10] = biological target: T2, human EGFR-His antigen; test: SPR Biacore 8K, antibody on Protein A chip, 1:1 fit; remark: listed apart in the source
human EGFR-His antigen [11] = biological target: T2, human EGFR-His antigen; test: SPR Biacore 8K, antibody on Protein A chip; Ag1 blank, Ag2 hEGFR-His

B1: F4-18 (antibody of hybridoma 36G9) (antibody, V domains shown)
VH: EVQLQQSGAELVRPGSSVKMSCKTSGYTFTSYGINWVKQRPGQGLEWIGYIYLGSDYTEYNEKFKGKATLTSDTTSSTAYMQLSSLTSEDSAIYFCARSAGSLFAYWGQGTLVTVSA
VL: DIQLTQSPSSLSASLGERVSLTCRASQDIGITLNWLQQEPDGTIKRLIYATSSLDSGVPKRFSGSRSGSDYSLTISSLESEDFVDYYCLQYASSPYTFGGGTKLEIK
notes: murine antibody tested as hybridoma supernatant; also called hybridoma supernatant 36G9
Question: B1 was tested. Which OD450 nm [1] did it give?
Answer: 2.05

B2: ZalH4 (antibody, human IgG1, kappa, V domains shown)
VH: QVQLVESGGGVVQPGRSLRLSCAASGFTFSTYGMHWVRQAPGKGLEWVAVIWDDGSYKYYGDSVKGRFTISRDNSKNTLYLQMNSLRAEDTAVYYCARDGVTMVRGVMKDYFDYWGQGTLVTVSS
VL: DIQLTQSPSSLSASVGDRVTITCRASQDISSALVWYQQKPGKAPKLLIYDASSLESGVPSRFSGSESGTDFTLTISSLQPEDFATYYCQQFNSYPLTFGGGTKVEIKR
notes: anti-EGFR zalutumumab variant, human IgG1; also called EGFR monoclonal antibody ZalH4
Question: B2 was tested. Which Kd (human EGFR-His antigen [2]) did it give?
Answer: 44.3 nM

Question: And the Kd (human EGFR-His antigen [3])?
Answer: 33 nM

Question: And the Kd [4]?
Answer: 477 nM

Question: What about the Emax [5] of the same binder?
Answer: 37600

Question: And the Emax [6]?
Answer: 13000

B3: ZalH4-9-A (antibody, human IgG1, kappa, V domains shown)
VH: B2 VH
VL: B2 VL
modifications: compound 9-A coupled to reduced cysteines of the antibody (chains and sites not stated), average DAR n=5.94
notes: also called EGFR monoclonal antibody ADC
Question: How did the Emax [5] turn out when B3 was run?
Answer: 31700

Question: And the Emax [6]?
Answer: 14400

B4: M4-H1L1 (antibody, human IgG1, kappa)
heavy: not shown
light: DIQMTQSPSSLSASVGDRVTITCSASSSVFNMNWYQQKPGKSPKLWIYDISKLASGVPSRFSGSGSGTDFTLTISSLQPEDFATYYCQQRSFYPPTFGGGTKVEIKRTVAAPSVFIFPPSDEQLKSGTASVVCLLNNFYPREAKVQWKVDNALQSGNSQESVTEQDSKDSTYSLSSTLTLSKADYEKHKVYACEVTHQGLSSPVTKSFNRGEC
notes: humanized, human IgG1
Question: How did the Kd [7] turn out when B4 was run?
Answer: 18.9 nM

Question: What about the Kd [8] of the same binder?
Answer: 5.27 nM

B5: M4H1L1-ZalH4 (bispecific antibody, human IgG1, kappa)
heavy: not shown
light: B4 light
chain 1: not shown
chain 2: DIQLTQSPSSLSASVGDRVTITCRASQDISSALVWYQQKPGKAPKLLIYDASSLESGVPSRFSGSESGTDFTLTISSLQPEDFATYYCQQFNSYPLTFGGGTKVEIKGGGGSSGAPRFLTRPKASVVSVGKDATLSCQIVGNPFPQVSWEKDKQPVTAGVRFRLAQDGDLYRLKILDLQLSDSGQYVCRARNAHGEAFACLGLQVDAEA
notes: also called anti-EGFR-MUC1 bispecific antibody
Question: Which Kd (human EGFR-His antigen [9]) does the source give for B5 here?
Answer: 19.6 nM

Question: And the Kd (human EGFR-His antigen [3])?
Answer: 14.8 nM

Question: And the Kd [7]?
Answer: 17.8 nM

Question: And the Kd [4]?
Answer: 243 nM

Question: What about the Kd (human EGFR-His antigen [10]) of the same binder?
Answer: 10.4 nM

Question: And the koff (human EGFR-His antigen [10])?
Answer: 0.00144 s⁻¹

Question: What about the kon (human EGFR-His antigen [10]) of the same binder?
Answer: 139000 M⁻¹ s⁻¹

Question: And the Kd (human EGFR-His antigen [11])?
Answer: 18 nM
